Measured values published in patent US12018068B2, “Anti-O1 antibodies and uses thereof” (priority 2016, dated 2024).

What was measured:
[1] = molecular target: O1 LPS; assay: Octet binding affinity to O1 LPS; set-up: species or system Klebsiella pneumoniae; conditions: average, from on-rate and off-rate, read-out: affinity constant (KD) to O1 LPS
Text: In order to reduce potential sequence liabilities for antibody development including potential immunogenicity due to anti-drug antibodies, an unpaired Cysteine in the light chain CDR3 of KPE33 was exchanged with Threonine (T), and somatic mutations in the frameworks 1, 2, and 4 of KPE33 were replaced with germ line residues (as summarized in FIG. 5). CDRs were maintained as wildtype, except for the C107T substitution described above. The optimized KPE33 was named KPE33v2016. […] This platform provides a powerful tool to measure the rate of biomolecular complex formation and complex stability in a more biologically meaningful setting. Briefly, Protein A coated sensors were coated with 2 μg/mL O1 LPS for 10 minutes before being dipped into solution containing 0.2 μg/mL anti-O1 LPS mAbs in Kinetics buffer (ForteBio, dilute 10× to 1× with PBS). Changes in the number of molecules bound to the biosensor caused a shift in the interference pattern that was recorded in real time. […] The affinity constant (KD) of KPE33 and KPE33v2016 to O1 LPS was calculated based on the on-rate and off-rate from Octet sensorgram.
KPE33v2016 was further optimized, thereby creating two new variants—KPE33 H32+L2016(1EQ) and KPE33 H33+L2016(1EQ). Both of these variants contain a Methionine to Isoleucine mutation adjacent to CDRH1, a Tryptophan to Tyrosine mutation in CDRH2, an Aspartate to Glutamate mutation adjacent to CDRH2, Asparagine to Glutamine and Methionine to Leucine mutations in FRH3 and an Aspartate to Asparagine mutation in CDRH3. In addition, KPE33 H32+L2016(1EQ) had four FRH3 residues changed to the germ-line residues, whereas KPE33 H33+L2016(1EQ) only has three of the same FRH3 residues changed to the germ-line. Both of these variants contain the same light chain as KPE33v2016, but with a single Glutamate to Glutamine mutation in residue 1.

[2] = system: K. pneumoniae carbapenem-resistant (CRE) strain Kp1131115 (O1); assay: acute lethal pneumonia model, survival; assay type: in vivo, Klebsiella pneumoniae; conditions: C57BL/6 mice, antibody one hour post bacterial challenge, vs human IgG1 control (R347)
Description: (§1) In an acute pneumonia model, C57BL/6 mice were inoculated intranasally with 1e4 to 1e8 CFU of the multi-drug resistant Klebsiella pneumoniae carbapenam resistant (CRE) clinical isolate strain KP1131115 (O1). Anti-K. pneumoniae monoclonal antibody KPE33 at 0.2, 1, and 5 mg/kg and human IgG1 control antibody at 5 mg/kg were given one hour post bacterial challenge (therapeutic dosing). Mouse survival was monitored daily until up to day 8.
as §1, with “Additionally, in an” for “In an”, “monoclonal antibodies […] and […]” for “monoclonal antibody KPE33”, “at 0.2” for “at 0.2, 1,”, “and 1” for “and 5”
KPE33 or KPE33-V-2016 were administered at a dose of 6 mg/kg 1 hour post bacterial infection with a Klebsiella pneumoniae carbapenam resistant strain.

B1: KPE33 H32+L2016(1EQ): further optimized variant of KPE33v2016, VH SEQ ID NO:61, VL SEQ ID NO:63 (antibody, V domains shown)
VH: QVQLVESGGGLVQPGRSLRLSCAASGFIFDDYAIHWVRQAPGKGLEWVSGIAYKSGATNYAESVKGRFTISRDQSKNSLYLQMNSLRAEDTALYYCTRRRASGDNTFYYFDYWGQGTLVTVSS
VL: QIVLTQSPATLSLSPGERATLSCRASQNVNTNLAWYQQKPGQAPRLLIYDASNRATGIPARFSGSGSGTDFTLTISSLEPEDFAVYYCQQTTNWRYTFGQGTKLEIK
- Kd [1]: 4.46 nM
- survival, lethal pneumonia Kp1131115 [2]: dose dependently enhanced survival
- survival, lethal pneumonia Kp1131115 ([2]; listed as KPE33-H32+L2016(EQ1)): protect mice from lethal bacterial challenge

B2: KPE33 H33+L2016(1EQ): further optimized variant of KPE33v2016, VH SEQ ID NO:62, VL SEQ ID NO:63 (antibody, V domains shown)
VH: QVQLVESGGGLVQPGRSLRLSCAASGFIFDDYAIHWVRQAPGKGLEWVSGIAYKSGATNYAESVKGRFTISRDQSKKSLYLQMNSLRAEDTALYYCTRRRASGDNTFYYFDYWGQGTLVTVSS
VL: QIVLTQSPATLSLSPGERATLSCRASQNVNTNLAWYQQKPGQAPRLLIYDASNRATGIPARFSGSGSGTDFTLTISSLEPEDFAVYYCQQTTNWRYTFGQGTKLEIK
- Kd [1]: 5.01 nM
- survival, lethal pneumonia Kp1131115 [2]: dose dependently enhanced survival
